Measured values published in patent publication US20070148191A1.

Target: CDw52 antigen (CAMPATH-1 antigen) (human) (UniProt P31358)
Test: cell-based or functional assay

Substance: CAMPATH (antibody)
- lysis in 51Cr release assay (ADCC) of SaOS-2 osteosarcoma cells with LAK effector cells, after 18 h: 45%
